# From publication doi:10.1101/2023.02.22.529570 (bioRxiv, 2023)
# T1: His-NEON-EBP50 PDZ1PDZ2 (human, UniProt O14745-1 1-298)
# T1 sequence: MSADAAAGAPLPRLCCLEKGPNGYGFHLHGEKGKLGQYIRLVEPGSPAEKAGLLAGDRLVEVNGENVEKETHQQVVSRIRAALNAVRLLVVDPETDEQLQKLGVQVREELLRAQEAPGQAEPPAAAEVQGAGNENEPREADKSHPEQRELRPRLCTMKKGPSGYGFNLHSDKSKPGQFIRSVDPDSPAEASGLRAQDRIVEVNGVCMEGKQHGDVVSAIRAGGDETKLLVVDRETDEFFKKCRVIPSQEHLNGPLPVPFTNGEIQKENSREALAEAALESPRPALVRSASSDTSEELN
# B1: GST-CDHR5 CD (domain or fragment)
# chain: RLKCCCGKAPEPQPQGFDNQAFLPDHKANWAPVPSPTHDPKPAEAPMPAEPAPPGPASPGGAPEPPAAARAGGSPTAVRSILTKERRPEGGYKAVWFGEDIGTEADVVVLNAPTLDVDGASDSGSGDEGEGAGRGGGPYDAPGGDDSYI
# Target: T1, His-NEON-EBP50 PDZ1PDZ2
# Assay: pull-down
binder,measurement,value
B1,binding result,binds
